Laboratory results as given in patent US20140308287A1 (SEA LANE BIOTECHNOLOGIES, published 2014).
Positions count from the first letter of the chain named. Read-outs that look alike come from different tables or passages of the source. Values belong to the binder of their own block, whether it stands above or below them.

Columns and labels:
[1] = molecular target: T1, human ErbB3-Fc (R&D Systems) (human, UniProt P21860 20-643); experiment: ELISA on ErbB3-Fc, soluble monovalent Sab (Example 42)
T1 construct: Bought protein; also called wild-type ErbB3-Fc fusion; immobilized ErbB3; not shown: Fc part of the bought fusion protein; not described

[2] = molecular target: T1, human ErbB3-Fc (R&D Systems); experiment: as above; remark: listed apart in the source

B1: 2995-C07 (other)
VH: EVQLLESGGGLVQPGGSLRLSCAASGFTFSNYWMHWVRQAPGKGLEWVALISSGSTYISYADSVKGRFTISRDNSKNTLYLQMNSLRAEDTAVYYCAKDNFILLNSWLDYWGQGTLVTVSS
light: QPVLHQPPAMSSALGTTIRLTCTLRNDHDIGVYSVYWYQQRPGHPPRFLLRYFSQSDKSQGPQVPPRFSGSKDVARNRGYLSISELQPEDEAMYYCAMGARSSVTHVFGSGTQLTVLSQPKATPSVTLFPPSSEELQANKATLVCLMNDFYPGILTVTWKADGTPITQGVEMTTPSKQSNNKYAASSYLSLTPEQWRSRRSYSCQVMHEGSTVEKTVAPAECS
EC50 [1]: 0.056 nM

B10: 2995-G11 (other)
VH: B1 VH with N31S, A49S, L50A, S55G, T56G, S59Y, L108F
surrogate light: B1 light
notes: copies: 1 + 1
EC50 [1]: 0.029 nM

B14: 2995-H03 (other)
VH: B1 VH with N31D, L50V, S53G, S55G, T56A, I58K, S59Y, L108F
light: B1 light
EC50 [1]: 0.026 nM

B18: 2995-E12 (other)
VH: B1 VH with L108F
light: B1 light
EC50 [1]: 0.04 nM

B19: 2995-H07 (other)
VH: B1 VH with N31D, H35N, S53N, G54N, S55G, T56S, I58T, S59Y, L108F
light: B1 light
EC50 [1]: 0.025 nM

B21: 2995-D07 (other)
VH: B1 VH with L50A, S53N, S55G, T56G, I58K, S59Y, L108F
surrogate light: B1 light
notes: copies: 1 + 1
EC50 [1]: 0.033 nM

B23: 2995-D03 (other)
VH: B1 VH with N31S, W33A, S53N, T56G, I58K, S59Y, L108F
light: B1 light
notes: copies: 1 + 1
EC50 [1]: 0.015 nM

B24: 2995-G10 (other)
VH: B1 VH with N31D, H35N, L50N, S53N, S55G, S59Y, L108F
light: B1 light
EC50 [1]: 0.022 nM

B27: 2995-F08 (other)
VH: B1 VH with N31S, A49S, L50G, S53N, G54N, S55G, T56R, I58K, S59Y, L108F
light: B1 light
EC50 [1]: 0.059 nM

B28: 2995-H11 (other)
VH: B1 VH with N31D, A49S, L50A, G54S, S55G, T56G, I58K, S59Y, L108F
light: B1 light
EC50 [1]: 0.063 nM

B29: 2995-D11 (other)
VH: B1 VH with N31S, L50V, S53N, G54N, S55G, T56R, I58K, S59Y, L108F
surrogate light: B1 light
notes: copies: 1 + 1
EC50 [1]: 0.027 nM

B30: 2995-D01 (other)
VH: B1 VH with N31S, H35S, S53N, S55G, T56S, Y57I, I58K, S59Y, L108F
light: B1 light
EC50 [1]: 0.038 nM

B31: 2995-E08 (other)
VH: B1 VH with N31S, L50G, S55G, T56S, I58K, S59Y, L108F
light: B1 light
EC50 [1]: 0.039 nM

B32: 2995-C10 (other)
VH: B1 VH with N31S, L50G, S53G, S55G, T56A, I58T, S59Y, L108F
light: B1 light
notes: copies: 1 + 1
EC50 [1]: 0.02 nM

B34: 2995-D08 (other)
VH: B1 VH with N31D, L50A, S53W, S55G, T56S, I58T, S59Y, L108F
light: B1 light
EC50 [1]: 0.052 nM

B35: 2995-H09 (other)
VH: B1 VH with L50S, S53N, S55G, T56R, S59Y, L108F
light: B1 light
EC50 [1]: 0.02 nM

More lines, now with the values ahead:

EC50 [2]: 0.121 nM
B2: 3000-E07 (other)
VH: B1 VH with S53G, S55G, T56G, Y57N, S59Y, F101E, I102K, L103N, N105Y, S106T
light: B1 light
notes: copies: 1 + 1

EC50 [2]: 0.084 nM
B3: 3000-B06 (other)
VH: EVQLLESGGGLVQPGGSLRLSCAASGFTFSSYWMHWVRQAPGKGLEWVALISNNGAYIYYADSVKGRFTISRDNSKNTLYLQMNSLRAEDTAVYYCAKDNEKNLYTWLDYWGQGTLVTVSS
light: B1 light

EC50 [2]: 0.118 nM
B4: 3000-F09 (other)
VH: B3 VH with N53S, N54S, A56G, Y57I, I58T
surrogate light: B1 light

EC50 [2]: 0.179 nM
B5: 3000-B03 (other)
VH: B3 VH with S31N, A56T, I58T
light: B1 light
notes: copies: 1 + 1

EC50 [2]: 0.109 nM
B6: 3000-H03 (other)
VH: B3 VH with S31D, A49S, N54G, A56G, I58T
surrogate light: B1 light

EC50 [2]: 0.105 nM
B7: 3000-E01 (other)
VH: B3 VH with I58T
surrogate light: B1 light

EC50 [2]: 0.152 nM
B8: 3000-D07 (other)
VH: B3 VH with A49S, N53A, N54S, A56S, Y57I, I58K
light: B1 light
notes: copies: 1 + 1

EC50 [2]: 0.182 nM
B9: 3000-C08 (other)
VH: B3 VH with L50V, A56R, I58K
surrogate light: B1 light
notes: copies: 1 + 1

EC50 [2]: 0.158 nM
B11: 3000-G09 (other)
VH: B3 VH with N54G, A56G, I58K
light: B1 light
notes: copies: 1 + 1

EC50 [2]: 0.102 nM
B12: 3000-C07 (other)
VH: B3 VH with H35S, N54G, A56S, Y57I, I58K
surrogate light: B1 light

EC50 [2]: 0.087 nM
B13: 3000-A07 (other)
VH: B3 VH with S31D, L50V, N53G, N54G, I58K
surrogate light: B1 light

EC50 [2]: 0.139 nM
B15: 3000-A11 (other)
VH: B3 VH with N53W, N54G, A56G, Y57T, I58K
light: B1 light
notes: copies: 1 + 1

EC50 [2]: 0.115 nM
B16: 3000-B02 (other)
VH: B3 VH with L50V, N53S, N54G, A56N
surrogate light: B1 light

EC50 [2]: 0.072 nM
B17: 3000-A08 (other)
VH: B3 VH with H35N, N54G, A56G, Y57I, I58K
light: B1 light

EC50 [2]: 0.164 nM
B20: 3000-C03 (other)
VH: B3 VH with A56T, I58K
light: B1 light
notes: copies: 1 + 1

EC50 [2]: 0.07 nM
B22: 3000-B09 (other)
VH: B3 VH with S31D, N53S, N54G, A56G, I58K
light: B1 light

EC50 [2]: 0.109 nM
B25: 3000-E04 (other)
VH: B3 VH with S31D, L50V, N53W, N54G, I58K
surrogate light: B1 light

EC50 [2]: 0.082 nM
B26: 3000-A05 (other)
VH: B3 VH with S31D, N53A, N54G, A56T, I58K
light: B1 light

EC50 [2]: 0.127 nM
B33: 3000-A04 (other)
VH: B3 VH with N53A, N54G, A56T, Y57S, I58K
light: B1 light
notes: copies: 1 + 1
